Experimental data taken from paper PMC12528421.

T1: Flag-AS160 (human, UniProt O60343 1-1298)
T1 sequence: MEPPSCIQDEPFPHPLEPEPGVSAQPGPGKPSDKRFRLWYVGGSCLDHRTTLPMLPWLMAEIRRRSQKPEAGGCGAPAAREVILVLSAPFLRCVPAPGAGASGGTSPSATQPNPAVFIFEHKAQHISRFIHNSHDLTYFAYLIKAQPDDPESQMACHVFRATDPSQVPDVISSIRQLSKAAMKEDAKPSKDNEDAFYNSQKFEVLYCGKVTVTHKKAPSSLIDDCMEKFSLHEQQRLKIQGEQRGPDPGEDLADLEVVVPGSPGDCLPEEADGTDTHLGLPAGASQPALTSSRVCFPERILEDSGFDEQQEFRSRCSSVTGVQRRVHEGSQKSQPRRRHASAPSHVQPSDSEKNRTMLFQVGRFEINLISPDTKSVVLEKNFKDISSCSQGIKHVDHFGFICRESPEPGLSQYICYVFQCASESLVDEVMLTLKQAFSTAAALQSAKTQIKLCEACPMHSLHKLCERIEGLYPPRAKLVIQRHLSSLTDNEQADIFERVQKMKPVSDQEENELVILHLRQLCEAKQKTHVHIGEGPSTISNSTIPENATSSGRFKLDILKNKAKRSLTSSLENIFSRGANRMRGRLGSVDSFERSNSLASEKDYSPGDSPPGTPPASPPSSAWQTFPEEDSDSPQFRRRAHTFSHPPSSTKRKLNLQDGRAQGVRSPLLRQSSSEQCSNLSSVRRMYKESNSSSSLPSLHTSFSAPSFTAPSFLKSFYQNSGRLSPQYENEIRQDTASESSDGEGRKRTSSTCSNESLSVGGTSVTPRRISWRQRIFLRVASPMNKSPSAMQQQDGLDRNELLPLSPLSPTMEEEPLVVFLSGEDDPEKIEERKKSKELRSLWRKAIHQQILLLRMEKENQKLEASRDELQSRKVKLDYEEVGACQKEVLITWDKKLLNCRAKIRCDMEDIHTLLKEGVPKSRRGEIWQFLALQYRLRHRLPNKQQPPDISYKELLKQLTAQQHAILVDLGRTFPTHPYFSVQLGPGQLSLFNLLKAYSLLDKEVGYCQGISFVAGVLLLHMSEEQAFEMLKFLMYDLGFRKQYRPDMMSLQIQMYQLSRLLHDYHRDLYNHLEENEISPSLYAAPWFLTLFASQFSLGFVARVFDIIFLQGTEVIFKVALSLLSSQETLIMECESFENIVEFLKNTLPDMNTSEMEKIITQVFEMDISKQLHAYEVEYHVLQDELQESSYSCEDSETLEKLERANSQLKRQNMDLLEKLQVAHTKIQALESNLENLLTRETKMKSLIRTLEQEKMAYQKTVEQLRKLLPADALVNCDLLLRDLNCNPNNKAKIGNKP

B1: Myod1 promoter bind site 1 probe (dsDNA)
DNA 1: ATTGGATTCCTGGCATCCGTTGGATTCCTGGCATCCGTTGGATTCCTGGCATCCG
DNA 2: CGGATGCCAGGAATCCAACGGATGCCAGGAATCCAACGGATGCCAGGAA
B2: Pax7 promoter bind site 3 probe (dsDNA)
DNA 1: AATTCTTCCGGGGATGTCAATTCTTCCGGGGATGTCAATTCTTCCGGGGATGTC
DNA 2: GACATCCCCGGAAGAATTGACATCCCCGGAAGAATTGACATCCCCGGA
B3: Myod1 promoter bind site 3 probe (dsDNA)
DNA 1: CAGATATTCTCTGAGCCATTCCCAGATGAGATATTCTCTGAGCCATTCCCAGATGG
DNA 2: CCATCTGGGAATGGCTCAGAGAATATCTCATCTGGGAATGGCTCAGAGAAT
B4: Pax7 promoter bind site 1 probe (dsDNA)
DNA 1: ATATGTTTACAGAAAGACATATGTTTACAGAAAGACATATGTTTACAGAAAGACA
DNA 2: TGTCTTTCTGTAAACATATGTCTTTCTGTAAACATATGTCTTTCTGTAA
B5: Classical STAT3 motif probe (dsDNA)
DNA 1: GATCCTTCTGGGAATTCCGATCCTTCTGGGAATTCCGATCCTTCTGGGAATTCC
DNA 2: GGAATTCCCAGAAGGATCGGAATTCCCAGAAGGATCGGAATTCCCAGA
B6: Pax7 promoter bind site 2 probe (dsDNA)
DNA 1: ATCCCATCCCCGGAAGCCCTCCCATCCCCGGAAGCCCTCCCATCCCCGGAAGCCC
DNA 2: GGGCTTCCGGGGATGGGAGGGCTTCCGGGGATGGGAGGGCTTCCGGGGA
B7: Myod1 promoter bind site 2 probe (dsDNA)
DNA 1: ACATTGTTCCTGGATATGACATTGTTCCTGGATATGACATTGTTCCTGGATATGA
DNA 2: TCATATCCAGGAACAATGTCATATCCAGGAACAATGTCATATCCAGGAA

Experiments:
Assay in all cases: EMSA
GST-STAT3 = GST-STAT3 (human, UniProt P40763 1-770)
GST-STAT3;Flag-AS160 [1] = target: T2, GST-STAT3;Flag-AS160 (human;human, UniProt P40763;O60343 1-770;1-1298, |)
Flag-AS160 = target: T1, Flag-AS160
GST-STAT3;Flag-AS160 [2] = target: T2, GST-STAT3;Flag-AS160; remark: listed apart in the source

T2 sequence (P40763 whole entry, one chain of several): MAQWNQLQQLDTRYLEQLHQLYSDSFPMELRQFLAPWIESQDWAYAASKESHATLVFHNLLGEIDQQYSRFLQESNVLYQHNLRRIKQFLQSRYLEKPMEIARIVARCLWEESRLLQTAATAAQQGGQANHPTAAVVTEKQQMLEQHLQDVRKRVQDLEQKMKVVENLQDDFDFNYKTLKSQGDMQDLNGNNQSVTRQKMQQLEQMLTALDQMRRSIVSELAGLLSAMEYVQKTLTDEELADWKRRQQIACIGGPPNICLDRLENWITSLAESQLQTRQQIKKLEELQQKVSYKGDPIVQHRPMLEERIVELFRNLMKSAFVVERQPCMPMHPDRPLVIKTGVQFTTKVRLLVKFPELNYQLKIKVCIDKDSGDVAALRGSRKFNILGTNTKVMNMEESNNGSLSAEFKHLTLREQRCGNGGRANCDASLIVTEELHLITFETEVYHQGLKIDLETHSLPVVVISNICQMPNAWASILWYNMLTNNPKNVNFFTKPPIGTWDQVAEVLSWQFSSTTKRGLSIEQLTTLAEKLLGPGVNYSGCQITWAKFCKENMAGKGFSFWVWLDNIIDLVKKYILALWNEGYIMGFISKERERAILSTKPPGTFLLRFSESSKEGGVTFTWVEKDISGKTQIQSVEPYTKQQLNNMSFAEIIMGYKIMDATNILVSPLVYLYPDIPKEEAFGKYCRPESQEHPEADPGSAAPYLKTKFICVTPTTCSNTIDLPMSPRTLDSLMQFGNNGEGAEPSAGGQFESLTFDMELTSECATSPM
Chain of GST-STAT3 (P40763 whole entry): as the sequence (P40763 whole entry, one chain of several) above

| Binder | binding result (GST-STAT3) | binding result (GST-STAT3;Flag-AS160 [1]) | binding result (Flag-AS160) | binding signal (GST-STAT3;Flag-AS160 [2]) |
| --- | --- | --- | --- | --- |
| B1 | binds | binds | no binding |  |
| B2 | binds | binds | no binding |  |
| B3 | binds | binds | no binding |  |
| B4 | binds | binds | no binding |  |
| B5 | binds |  | no binding | > 2 fold vs STAT3 alone |
| B6 | binds | binds | no binding |  |
| B7 | binds | binds | no binding |  |
